Test results published in doi:10.1101/068262 (bioRxiv, 2016).
No end group written: not given here.

Columns and labels:
[1] = target: ELL2^Occ–(Gly-Ser)4-AFF4^ELLBow fusion (UniProt Q9UHB7); test: SEC
[2] = target: Sumo-ELL2(519-640) (human) (UniProt O00472); test: fluorescence polarisation
Sumo-ELL2(519-640) = Sumo-ELL2(519-640) (human, UniProt O00472 519-640); test: fluorescence polarisation
GST-ELL2 (519-640) N619A = GST-ELL2 (519-640) N619A (human, UniProt O00472 519-640, N619A); test: pull-down
GST-ELL2 (519-640) H608E = GST-ELL2 (519-640) H608E (human, UniProt O00472 519-640, H608E); test: pull-down
GST-ELL2 (519-640) K625T = GST-ELL2 (519-640) K625T (human, UniProt O00472 519-640, K625T); test: pull-down
GST-ELL2 (519-640) H559E = GST-ELL2 (519-640) H559E (human, UniProt O00472 519-640, H559E); test: pull-down
GST-ELL2 (519-640) H559E, sequence (O00472 519-640 H559E): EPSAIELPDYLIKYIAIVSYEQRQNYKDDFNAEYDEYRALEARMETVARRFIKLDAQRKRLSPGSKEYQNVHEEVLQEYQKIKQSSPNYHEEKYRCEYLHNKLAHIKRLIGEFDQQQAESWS

Sumo-ELL2(519-640), sequence (O00472 519-640): as the sequence (O00472 519-640 H559E) above, with E41H counted along it
GST-ELL2 (519-640) N619A, sequence (O00472 519-640 N619A): as the sequence (O00472 519-640 H559E) above, with E41H, N101A counted along it
GST-ELL2 (519-640) H608E, sequence (O00472 519-640 H608E): as the sequence (O00472 519-640 H559E) above, with E41H, H90E counted along it
Sumo-ELL2(519-640) (human), sequence (O00472 519-640): as the sequence (O00472 519-640 H559E) above, with E41H counted along it
GST-ELL2 (519-640) K625T, sequence (O00472 519-640 K625T): as the sequence (O00472 519-640 H559E) above, with E41H, K107T counted along it

fold reduction of affinity against wild type (Sumo-ELL2(519-640)) [fold]	Molecule	also measured
–	ELL2^Occ–(Gly-Ser)4-AFF4^ELLBow fusion (from UniProt Q9UHB7 301-351)	stoichiometry N [1]: 2
–	AFF4^ELLBow α1 mutant D317P/E317P (301-351) (from UniProt Q9UHB7 301-351) (peptide)	fold reduction of affinity against wild type [2]: 10 fold
–	His6-tagged wild-type AFF4^ELLBow (AFF4 301-351) (peptide) PSQPLDASASGDVSCVDEILKEMTHSWPPPLTAIHTPCKTEPSKFPFPTKE	Kd (Sumo-ELL2(519-640)): 0.086 µM; binding result (GST-ELL2 (519-640) N619A): binds; binding result (GST-ELL2 (519-640) H608E): binds; binding result (GST-ELL2 (519-640) K625T): binds; binding result (GST-ELL2 (519-640) H559E): binds
3	AFF4^ELLBow double 328-329 Pro-Gly mutant (301-351) (peptide) PSQPLDASASGDVSCVDEILKEMTHSWGGPLTAIHTPCKTEPSKFPFPTKE	–
3	AFF4^ELLBow P342D (301-351) (peptide) PSQPLDASASGDVSCVDEILKEMTHSWPPPLTAIHTPCKTEDSKFPFPTKE	–
~20	AFF4^ELLBow L331D (301-351) (peptide) PSQPLDASASGDVSCVDEILKEMTHSWPPPDTAIHTPCKTEPSKFPFPTKE	–
< 2	AFF4^ELLBow F345D/F347D (301-351) (peptide) PSQPLDASASGDVSCVDEILKEMTHSWPPPLTAIHTPCKTEPSKDPDPTKE	–
> 25	AFF4^ELLBow I319D/L320D (301-351) (peptide) PSQPLDASASGDVSCVDEDDKEMTHSWPPPLTAIHTPCKTEPSKFPFPTKE	–
–	AFF4^ELLBow I319D/L320D/M323D (301-351) (peptide) PSQPLDASASGDVSCVDEDDKEDTHSWPPPLTAIHTPCKTEPSKFPFPTKE	Kd (Sumo-ELL2(519-640)): > 3 µM
4	AFF4^ELLBow W327D (301-351) (peptide) PSQPLDASASGDVSCVDEILKEMTHSDPPPLTAIHTPCKTEPSKFPFPTKE	–
8	AFF4^ELLBow I334D (301-351) (peptide) PSQPLDASASGDVSCVDEILKEMTHSWPPPLTADHTPCKTEPSKFPFPTKE	–
> 25	AFF4^ELLBow M323D (301-351) (peptide) PSQPLDASASGDVSCVDEILKEDTHSWPPPLTAIHTPCKTEPSKFPFPTKE	–
< 2	AFF4^ELLBow E322H (301-351) (peptide) PSQPLDASASGDVSCVDEILKHMTHSWPPPLTAIHTPCKTEPSKFPFPTKE	–
–	EILKEMTHSWPPPLTAIHTPSTAEPSKFPFPTK (also: fluorescent label, site not given here) [fluorescently labeled AFF1 peptide (residues 358-390)]	binding result (Sumo-ELL2(519-640)): binds
